Data from article PMC8115288.

B1: GST-CTD (C-terminal domain of HIV-1 integrase, aa 201-288) [HIV-1 His6-SUMO-INI1_(183-304) [not stated] (parent)
chain 1: VDIIATDIQTKELQKQITKIQNFRVYYRDSRNPLWKGPAKLLWKGEGAVVIQDNSDIKVVPRRKAKIIRDYGKQMAGDDCVASRQDED
chain 2: PEVLVPIRLDMEIDGQKLRDAFTWNMNEKLMTPEMFSEILCDDLDLNPLTFVPAIASAIRQQIESYPTDSILEDQSDQRVIIKLNIHVGNISLVDQFEWDMSEKENSPEKFALKLCSELGLG

Variants of: B1
Assay: Alpha assay
Conditions: with His6-SUMO-INI1_(183-304); low salt conditions; parent: 100; read off a plot

Variant	percent of parent
chain 1 R28A	8 % of WT
